Series [1] deals with taxol-stabilized microtubules. The series is described as follows: single-molecule TIRF binding density on microtubules.
The series “cryo-EM structure” deals with the molecule itself. The series is described as follows: cryo-EM structure.
Series [2] addresses Dyn^WB-M, monomeric S. cerevisiae dynein construct with a Walker B mutation in AAA3 (S. cerevisiae). Briefly: cryo-EM structure.
The target of series [3] is Dyn^wt-M, monomeric S. cerevisiae cytoplasmic dynein construct lacking GST, wild type AAA3 (S. cerevisiae) (UniProt P36022). The series is described as follows: cryo-EM structure.
Chain of Dyn^wt-M, monomeric S. cerevisiae cytoplasmic dynein construct lacking GST, wild type AAA3 (S. cerevisiae) (P36022 whole entry): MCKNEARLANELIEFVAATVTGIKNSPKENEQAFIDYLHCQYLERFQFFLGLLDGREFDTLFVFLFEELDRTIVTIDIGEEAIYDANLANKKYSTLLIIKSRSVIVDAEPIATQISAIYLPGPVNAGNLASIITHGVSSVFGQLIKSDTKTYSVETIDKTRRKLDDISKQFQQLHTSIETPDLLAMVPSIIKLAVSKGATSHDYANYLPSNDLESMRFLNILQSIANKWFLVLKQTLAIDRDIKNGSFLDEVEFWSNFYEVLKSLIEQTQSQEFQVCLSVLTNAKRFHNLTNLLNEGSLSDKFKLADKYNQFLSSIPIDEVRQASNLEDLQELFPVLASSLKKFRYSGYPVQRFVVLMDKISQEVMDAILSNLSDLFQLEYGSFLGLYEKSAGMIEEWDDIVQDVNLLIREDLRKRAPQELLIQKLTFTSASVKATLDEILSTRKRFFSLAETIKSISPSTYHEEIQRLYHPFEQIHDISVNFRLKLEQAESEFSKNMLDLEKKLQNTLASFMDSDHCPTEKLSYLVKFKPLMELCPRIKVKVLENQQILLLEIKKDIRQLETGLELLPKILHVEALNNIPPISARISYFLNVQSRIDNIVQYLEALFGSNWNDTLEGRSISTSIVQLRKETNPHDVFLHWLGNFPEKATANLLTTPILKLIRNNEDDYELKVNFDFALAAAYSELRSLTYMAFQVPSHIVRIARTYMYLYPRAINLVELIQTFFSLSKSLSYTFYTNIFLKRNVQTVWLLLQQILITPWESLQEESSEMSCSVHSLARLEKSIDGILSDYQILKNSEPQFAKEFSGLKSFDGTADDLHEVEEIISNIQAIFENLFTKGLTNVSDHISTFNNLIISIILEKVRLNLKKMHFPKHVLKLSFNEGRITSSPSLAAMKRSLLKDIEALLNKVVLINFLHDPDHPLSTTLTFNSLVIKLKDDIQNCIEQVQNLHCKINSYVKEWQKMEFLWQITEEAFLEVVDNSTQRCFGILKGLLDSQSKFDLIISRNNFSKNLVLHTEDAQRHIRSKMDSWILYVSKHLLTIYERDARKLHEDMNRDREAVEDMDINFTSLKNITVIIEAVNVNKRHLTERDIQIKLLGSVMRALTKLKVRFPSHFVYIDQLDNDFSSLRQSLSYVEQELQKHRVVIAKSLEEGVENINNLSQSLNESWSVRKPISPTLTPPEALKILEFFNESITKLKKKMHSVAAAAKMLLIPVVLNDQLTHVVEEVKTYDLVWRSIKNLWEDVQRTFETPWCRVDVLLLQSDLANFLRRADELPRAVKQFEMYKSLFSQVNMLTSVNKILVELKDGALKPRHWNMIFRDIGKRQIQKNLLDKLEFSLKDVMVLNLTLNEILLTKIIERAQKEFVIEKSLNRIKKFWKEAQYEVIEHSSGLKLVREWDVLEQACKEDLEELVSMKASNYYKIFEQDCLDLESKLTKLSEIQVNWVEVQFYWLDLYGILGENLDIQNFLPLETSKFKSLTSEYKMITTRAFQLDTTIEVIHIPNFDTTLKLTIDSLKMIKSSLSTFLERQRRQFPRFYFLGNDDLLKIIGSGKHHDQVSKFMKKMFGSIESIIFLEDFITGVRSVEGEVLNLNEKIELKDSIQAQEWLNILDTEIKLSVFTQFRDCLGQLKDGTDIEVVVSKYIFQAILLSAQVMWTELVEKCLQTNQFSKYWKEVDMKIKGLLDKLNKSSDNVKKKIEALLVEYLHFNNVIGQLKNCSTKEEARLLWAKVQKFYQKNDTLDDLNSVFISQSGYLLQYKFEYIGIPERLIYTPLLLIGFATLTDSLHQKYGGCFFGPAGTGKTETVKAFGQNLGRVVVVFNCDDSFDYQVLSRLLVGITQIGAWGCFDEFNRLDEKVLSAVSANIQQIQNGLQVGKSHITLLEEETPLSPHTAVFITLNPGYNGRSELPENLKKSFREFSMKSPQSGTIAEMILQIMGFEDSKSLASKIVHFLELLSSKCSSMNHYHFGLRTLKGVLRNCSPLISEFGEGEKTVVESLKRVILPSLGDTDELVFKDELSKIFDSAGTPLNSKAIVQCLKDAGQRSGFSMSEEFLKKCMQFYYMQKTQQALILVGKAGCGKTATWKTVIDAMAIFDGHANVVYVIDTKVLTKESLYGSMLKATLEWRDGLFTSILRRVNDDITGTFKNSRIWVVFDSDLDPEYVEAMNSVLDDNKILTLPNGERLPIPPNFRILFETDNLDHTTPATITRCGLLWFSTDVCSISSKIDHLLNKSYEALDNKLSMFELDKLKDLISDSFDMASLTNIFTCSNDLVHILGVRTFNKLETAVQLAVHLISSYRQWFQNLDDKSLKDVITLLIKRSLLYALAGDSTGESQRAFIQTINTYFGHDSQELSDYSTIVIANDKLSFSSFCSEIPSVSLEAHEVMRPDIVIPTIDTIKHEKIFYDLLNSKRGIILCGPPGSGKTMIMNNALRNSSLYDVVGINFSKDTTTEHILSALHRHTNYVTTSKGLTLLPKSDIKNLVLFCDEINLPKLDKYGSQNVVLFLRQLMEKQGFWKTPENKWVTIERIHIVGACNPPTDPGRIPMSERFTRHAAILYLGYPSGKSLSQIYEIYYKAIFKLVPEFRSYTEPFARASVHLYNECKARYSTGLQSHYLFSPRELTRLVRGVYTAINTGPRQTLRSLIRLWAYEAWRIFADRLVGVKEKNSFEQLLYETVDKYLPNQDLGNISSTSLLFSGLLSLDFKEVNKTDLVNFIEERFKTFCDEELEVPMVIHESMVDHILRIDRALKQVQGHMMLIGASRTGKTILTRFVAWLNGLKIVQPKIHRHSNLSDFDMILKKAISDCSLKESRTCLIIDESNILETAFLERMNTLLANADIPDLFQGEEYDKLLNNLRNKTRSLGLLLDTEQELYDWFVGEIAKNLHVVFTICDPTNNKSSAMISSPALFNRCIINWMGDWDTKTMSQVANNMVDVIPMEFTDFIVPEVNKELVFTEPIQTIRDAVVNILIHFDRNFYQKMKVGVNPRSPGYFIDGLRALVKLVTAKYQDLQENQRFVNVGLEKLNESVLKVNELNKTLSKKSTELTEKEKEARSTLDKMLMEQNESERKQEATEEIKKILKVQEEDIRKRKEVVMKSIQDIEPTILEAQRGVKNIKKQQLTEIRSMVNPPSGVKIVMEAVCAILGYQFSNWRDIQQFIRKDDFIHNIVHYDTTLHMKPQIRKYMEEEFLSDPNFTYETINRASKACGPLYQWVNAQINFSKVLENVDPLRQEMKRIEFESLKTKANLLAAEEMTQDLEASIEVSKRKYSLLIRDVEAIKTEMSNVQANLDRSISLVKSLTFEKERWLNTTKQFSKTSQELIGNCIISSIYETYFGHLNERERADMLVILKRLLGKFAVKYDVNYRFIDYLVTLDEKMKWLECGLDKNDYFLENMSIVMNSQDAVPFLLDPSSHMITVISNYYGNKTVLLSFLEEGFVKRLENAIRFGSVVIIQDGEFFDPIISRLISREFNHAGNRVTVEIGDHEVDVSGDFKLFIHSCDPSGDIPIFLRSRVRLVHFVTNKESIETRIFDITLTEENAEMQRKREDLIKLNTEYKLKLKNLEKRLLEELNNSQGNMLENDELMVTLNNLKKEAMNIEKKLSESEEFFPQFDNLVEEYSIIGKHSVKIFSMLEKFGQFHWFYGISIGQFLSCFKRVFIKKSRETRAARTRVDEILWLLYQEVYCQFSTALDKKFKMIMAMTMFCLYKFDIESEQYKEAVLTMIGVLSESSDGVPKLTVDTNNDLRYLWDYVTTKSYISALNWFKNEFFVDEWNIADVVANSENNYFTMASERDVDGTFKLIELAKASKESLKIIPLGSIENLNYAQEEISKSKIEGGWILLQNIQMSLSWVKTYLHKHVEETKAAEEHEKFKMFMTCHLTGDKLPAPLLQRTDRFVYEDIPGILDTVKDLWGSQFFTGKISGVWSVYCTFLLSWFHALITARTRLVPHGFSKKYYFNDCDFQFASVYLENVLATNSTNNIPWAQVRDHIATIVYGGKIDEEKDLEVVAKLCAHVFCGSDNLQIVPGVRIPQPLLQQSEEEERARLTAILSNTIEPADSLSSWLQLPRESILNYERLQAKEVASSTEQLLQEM

As for “Dyn^WA, GST-dimerized S. cerevisiae dynein construct with a Walker A mutation in AAA3 (domain or fragment)”, in series [1], the increase of binding density on MTs with 300 nM Lis1 against no Lis1 was 62%.
In series [1], “Dyn^WB, GST-dimerized S. cerevisiae dynein construct with a Walker B mutation in AAA3 (domain or fragment)” had a decrease of binding density on MTs with 300 nM Lis1 against no Lis1 of 42%.

B1: Lis1 (S. cerevisiae), dimer (natural protein, UniProt P39946 1-494, looked up)
chain: MTNWQQQLPLTDTQKNELDKSVLRYLNWNYKQTVRHEHAQDYESVRHAIVTLSGFLLQESVDRQEFISNNDTSNESMVDIDELLLPKKWNSIVRLQKKIIELEQNTETLVSQIKDLNTQVSELAQFKPTTSNGTSAHNVLKWIPRNLPSCLINVESSVTSVKLHPNLPIVFVATDHGKLYAFDLFNYTIPLASLQSHTKAITSMDVLFTNYTNSSKKNYLVIVTASKDLQIHVFKWVSEECKFQQIRSLLGHEHIVSAVKIWQKNNDVHIASCSRDQTVKIWDFHNGWSLKTFQPHSQWVRSIDVLGDYIISGSHDTTLRLTHWPSGNGLSVGTGHEFPIEKVKFIHFIEDSPEIRFRTPSTDRYKNWGMQYCVSASRDRTIKIWEIPLPTLMAHRAPIPNPTDSNFRCVLTLKGHLSWVRDISIRGQYLFSCADDKSVRCWDLNTGQCLHVWEKLHTGFVNCLDLDVDFDSNVTPRQMMVTGGLDCKSNVFMR
For B1, the binding result in the series “cryo-EM structure” was “binds”. Moreover, in series [2], the stoichiometry N (Lis1 β-propellers per dynein) stood at 2. Moreover, in series [3], the stoichiometry N (Lis1 β-propeller per dynein) was 1.

These data come from publication PMC5625841 (Cell, 2017).
